{
  "source": "patent US20150065436A1",
  "about": "(UNIVERSITY OF SOUTHERN CALIFORNIA, published 2015)",
  "binders": {"B1": {"name": "fluorescein-labeled HIF-1α C-TAD786-826 (peptide)", "peptide": "SMDESGLPQLTSYDCEVNAPIQGSRNLLQGEELLRALDQVN", "modifications": "also: fluorescein label, site shown only in structure", "notes": "Fluorescent probe of the polarization assay; also called Flu-HIF C-TAD"}},
  "key": {"[1]": {"biological_target": "T1, p300-CH1 (cysteine-histidine rich 1 domain of human coactivator protein p300, amino acid residues 323-423) (human, UniProt Q09472 323-423, uniformly 15N-labelled; folded with 3 equivalents of Zn2+)", "T1 construct": "range 323-423; Expressed in E. coli from pGEX-4T-2 as a GST fusion; also called p300 CH1 domain; 15N-labeled p300-CH1", "T1 sequence (Q09472 323-423 limits assumed)": "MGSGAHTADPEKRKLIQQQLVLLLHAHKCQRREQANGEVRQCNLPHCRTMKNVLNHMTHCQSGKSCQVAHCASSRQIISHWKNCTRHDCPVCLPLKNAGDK", "assay": "fluorescence polarization, p300-CH1 titrated into 15 nM fluorescein-labeled HIF peptide"}, "[2]": {"biological_target": "T1, p300-CH1 (cysteine-histidine rich 1 …)", "assay": "fluorescence polarization, p300-CH1 titrated into 15 nM fluorescein-labeled HIF-1α C-TAD786-826"}},
  "note": "Ends that are not written are not given here.",
  "data": [
    {"binder": "B1", "values": [
      {"measurement": "Kd", "setting": "[1]", "result": 31, "unit": "nM"},
      {"measurement": "EC50 (read off the curve)", "setting": "[2]", "result": "~40", "unit": "nM"},
      {"measurement": "Kd", "setting": "[2]", "result": 31.9, "unit": "nM"}
    ]}
  ]
}
